Measured values: publication PMC5647421, “Hetero-oligomer of dynamin-related proteins participates in the fission of highly divergent mitochondria from Entamoeba histolytica” (Scientific Reports, 2017)
Values joined by “and” are separate entries in the source; they are usually repeats but may differ in a detail not shown here. Equal values may be shown once.

Target: T1, EhDrpA (endogenous) (Entamoeba histolytica (endogenous in …, UniProt C4LX84 1-682))
T1 construct: Entamoeba histolytica dynamin-related protein A (EhDrpA, earlier named EhDlp1), XP_649650; also called endogenous EhDrpA; native EhDrpA; source: endogenous, E. histolytica trophozoite whole cell lysate
T1 sequence (looked up): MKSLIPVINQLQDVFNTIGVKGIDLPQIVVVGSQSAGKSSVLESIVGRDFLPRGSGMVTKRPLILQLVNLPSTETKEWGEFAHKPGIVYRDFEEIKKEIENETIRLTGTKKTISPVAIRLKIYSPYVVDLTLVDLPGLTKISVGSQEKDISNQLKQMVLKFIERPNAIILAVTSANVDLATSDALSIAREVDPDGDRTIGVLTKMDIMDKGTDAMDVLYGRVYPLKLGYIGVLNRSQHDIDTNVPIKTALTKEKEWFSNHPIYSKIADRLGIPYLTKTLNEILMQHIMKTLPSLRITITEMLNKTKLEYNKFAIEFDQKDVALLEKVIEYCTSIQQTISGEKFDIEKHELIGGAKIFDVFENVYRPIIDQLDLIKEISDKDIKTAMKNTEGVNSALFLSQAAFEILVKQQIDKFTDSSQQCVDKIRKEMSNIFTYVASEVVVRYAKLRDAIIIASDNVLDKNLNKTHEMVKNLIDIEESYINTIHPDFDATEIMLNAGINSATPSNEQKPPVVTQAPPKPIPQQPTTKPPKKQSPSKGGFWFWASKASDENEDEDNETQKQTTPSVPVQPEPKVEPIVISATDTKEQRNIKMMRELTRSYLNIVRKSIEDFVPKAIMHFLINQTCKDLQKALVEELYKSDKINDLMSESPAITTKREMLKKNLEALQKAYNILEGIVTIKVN
Test: co-IP; trophozoites of E. histolytica HM-1:IMSS cl6 wild type; immunoprecipitation by anti-DrpA or anti-DrpB antibodies; quantitative immunoblot with recombinant His6-EhDRP-HA proteins as standards
Settings: partners not purified

B1: EhDrpB (endogenous) (natural protein, UniProt C4M3R5 1-663, looked up)
chain: MQRLIPVINSLQDVFTAAGLPNTLPLPQIVVVGSQSSGKSSVLEHVVGKDFLPRGSGIVTRRPLIVQCVRSNVAEDYGQFEHTGDRKFTDFGEIRNEITRETERTCPGRNVSSVPIRLRIYSSSVVDLTLVDLPGLVKVNINGQTAEMVKNLRDMVYEYASPSNALILAVTAGNIDIANSDALQVAKDVDPDGERTIGVLTKLDLEDKGTNSMDVLMGRVYPLKLGYIGVVNRSQQDINNGVDVKTSLRHEKEFFENHPVYCSIAERMGTEYMVNRLNVLLLQHIQKCLPGLKQQINQCYEKARSRYEDIKPDDENLLSLSLQQIMKFSGSFAAALNGTDTNIHTHEISGGAKIFSVFENNFRPTIDSQDILSGIKDVDILTAIKNASGTRPCLYVPQSAFENLISKQVRNFEGTCHNCVDNVYREMKVIVGKIAKDNIEKYDRFREALIQASTEVMNDYMTQTHKMVQDLIDIEADYINTSHPDFDTTKVLKEADEAMKTPQDGIDTIVTIDPNNTTNAQQYEAKKPVKSSFFAGQINKNQAKPQQQHVPKESITTSIRVDHTNQREMREINLIRNLCKDYLLIVRKSIKDLVPKAVIHFLVFKTRDSLQKELIKKLYNEALLQDLLAENPAIVNERKVVKQNLEALKKALDIINQVRDQCF
notes: Entamoeba histolytica dynamin-related protein B (EhDrpB), XP_651634; also called endogenous EhDrpB; native EhDrpB; source: endogenous, E. histolytica trophozoite whole cell lysate
stoichiometry N: 2 EhDrpB per EhDrpA and 3 EhDrpB per EhDrpA
